Test results as given in the nanobody polyreactivity screen of Harvey et al. (2022).

Test: yeast display, Sf9 membrane polyspecificity reagent, FACS + sequencing; frameworks hold sequencing errors
Summary of the method: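 Using colony PCR, genes from sorted yeast display clones were amplified, then sequenced on MiSeq at 2 × 250 and filtered by CDR length. The clones had been stained with 10% biotinylated, detergent-solubilized Sf9 membrane reagent for 1 hour at 4 °C and sorted by FACS into low and high (top ~1%) gates on anti-HA and streptavidin fluorescence. Polyreactivity labels come from the gate of origin.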

Sequence	polyreactivity (PSR sort gate)
QDQLVESGGGLVQAGGSLRLSCAASGFTFNIYAMGWYRQAPGKERELVAAISWSGGRTNYADSVKGRFTISRDNAKKTVYLQMNSLKPEATAVYYCAVRYKSWYGFNYWGQGTQVTVSS	high polyreactivity
QDQLVESGGGLVQAGGSLRLSCAASGFTFNWKDMGWYRQAPGKERELVAAISGGASTYYADSVKGRFTISRDNAKNTVYLQMNSLKPEDTAVYYCAADLDEWGYLFDYWGQGTQVTVSS	low polyreactivity
QDQLVESGGGLVQAGGSLRLSCAASGFTFRRYAMGWYRQAPGKERELVAAISYTGGITYYADSVKGRFTISRDNAKNTVYLQMNSLKPEDTAVYYCAAESVWTWDYTTAGMDYWGQGTQVTVSS	high polyreactivity
QDQLVESGGGLVQAGGSLRLSCAASGFTFVYNAMGWYRQAPGKERELVAAITSGGNTYYADSVKGRFTISRDNAKNTVYLQMNSLKPEDTAVYYCAADRFTVRMDYWGQGTQVTLSS	high polyreactivity
QDQLVESGGGLVQAGGSLRLSCAASGFTFWEYAMGWYRHAPGKERELVAAISRGTSTYYADSVKGRFTISRDNAKNTVYLQMNSLKPEDTAVYYCASAPSYYPARHGYWGQGTQVTVSS	low polyreactivity
QDQLVESGGGLVQAGGSLRLSCAASGFTFYAYSMGWYRQAPGKERELVAAITYIGSTYYADSVKGRFTISRDNAKNTVYLQMNSLKPEDTAVYYCAAVKVFLGLGYDYWGQGTQVTVSS	low polyreactivity
QDQLVESGGGLVQAGGSLRLSCAASGFTFYLYTMGSYRQAPGKERELVATITSDGGTNYADSVKGRFTISRDNAKNTVYLQMNSLKPEDTAVYFCNAASRRGSRKQAKYDYWGQGTQVTVSS	low polyreactivity
QDQLVESGGGLVQAGGSLRLSCAASGFTFYSYAMGWYRQAPGKERELVAAISYRGGSTYYADSVKGRFTISRDNAKNTVYFQMNSLKPEDTAVYYCAARSPSAAYGSYGVYYWGQGTQVTVSS	high polyreactivity
QDQLVESGGGLVQAGGSLRLSCAASGFTLHVYAMGWYRQAPGKERELVAAISTGGNTNYGDSVKGRFTISRDNAKNTVYLQMNSLKPEDTAVYYCNARYTSRRSRRPYYYWGQGTQVTVSS	high polyreactivity
QDQLVESGGGLVQAGGSLRLSCAASGGIFKSNTMGWDRTAHGKERELVAAITYSDGGTYYADSVKGRFTISRDNAKNTVYLQMNSLTPEDTAVYYCAVDYDTFYWHHYPGEIDHWGQGTQVNVSS	low polyreactivity
QDQLVESGGGLVQAGGSLRLSCAASGGNFPPYDMGWYRQAPGKERDLVATISSDSTNYADSVKGRFTISRDNAKNTVYLQMNSLKPEDSAVYYCAVRFYWAPGGGEYDYWGQGTQVTVSS	low polyreactivity
QDQLVESGGGLVQAGGSLRLSCAASGIIFDDNTMGWYRQAPGKERELVAAISSSGGSTYYADSVKGRFTISRDNAKNTVYLQMNSLKPEDTAVYYCAAAVYYTYPYIVYRNYPEFDYRGQGTQVTVSS	low polyreactivity
QDQLVESGGGLVQAGGSLRLSCAASGIIFRNYAMGWYRQAPGKERELVATIRYRGGRTYADSVKGRFTISRDNAKNTVYLQMNSLKPEDTAVYYCNARRLSDYGDYDYWGQGTQVTVSS	high polyreactivity
QDQLVESGGGLVQAGGSLRLSCAASGITFAYYAMGWYTQAPGKERELVAGISKSGGRTYYADSVKGRFTISRDHAKNTVYLQMNSLKPEDTAVYYCAAQDARRIVYYRYYYWGQGTQVTVSS	high polyreactivity
QDQLVESGGGLVQAGGSLRLSCAASGITFPNYAMGWYGQAPGKERELVAAISRGDSTYYADSVKGRFTISRDNAKNTVYLQMNSLKPEDTAVYYCAARYGRYWSSSGSWTPYGYWGQGTQVTVSS	high polyreactivity
QDQLVESGGGLVQAGGSLRLSCAASGLIFLYPMGGYRQAPGKERELVAAISNGGSTYYADSVKGRFTISRDNAKNTVYLQMNSLKPEDTAVYFCAAKGVRRRYRPDMYYWGQGTQVTVSS	high polyreactivity
QDQLVESGGGLVQAGGSLRLSCAASGLIFTGNVMGWYRQEPGKERELVAAISRSGGRTYYADSVKGRFTISRDNAKNTVYLQMNSLKREDTAVYYCNKVSPERVYYGSYFRYYYWGQGTQVTVSS	high polyreactivity
QDQLVESGGGLVQAGGSLRLSCAASGLIFVRYAMGWYRQAPGKERELVATITWSGGTTYADSVKGRFTISRDNAKKTVYLQMNSLNPEDTAVYYCAVASGPELDYWGQGTQVTVSS	low polyreactivity
QDQLVESGGGLVQAGGSLRLSCAASGLTFAPYAMGWYREAPGKERELVAAISNGGSTYYADSVKGRFTISRDNAKNTVYLQMISLKPEDTAVYYCADRAFYFWRGYDYWGQGTQVTVSS	high polyreactivity
QDQLVESGGGLVQAGGSLRLSCAASGLTFYVNAMGWYRQAPGTERELDAAITWSGGSTHYADSVKGRFTISRDNAKNTVYLQMNSLKPEDTAVYYCGRATFQNSYVAYDYCGQGTQVTVSS	low polyreactivity
QDQLVESGGGLVQAGGSLRLSCAASGRIFAGYTMGWSRQAPGKERELVAAISWSGGRTYYADSVKGRFTISRDNAKNTVYLQMNSLKPEDTAVYYCNIVGWYHNYYYWGQGTQVTVSS	high polyreactivity
QDQLVESGGGLVQAGGSLRLSCAASGRIFDRYAMGWYRQAPGKERELVAAISGRTGSTYYADSVKGRFTISRDNAKNTVYLQMNSLKPEDTAVYYCAKRSYWDGVRYDYWGQGTQVTVSS	high polyreactivity

Sequence	polyreactivity (PSR sort gate)
QDQLVESGGGLVQAGGSLRLSCAASGRIFEGNAMGWYRQAPGKEREFLAAISDGGSTNYADSVKGRFTISRDNAKNTVYLQLNSLKPEETAVYYCNVGANVYMLYFPSRGGVYDYGYWGQGTQVNVSS	low polyreactivity
QDQLVESGGGLVQAGGSLRLSCAASGRIFGWYAMGWYRQAPGKEREFVAAISRGGSTNYADSVKGRFTISRDNAKNTVYLQMNSLKAEDTAVYYCNARKRGSRLRREFDYWGQGTQVTVST	high polyreactivity
QDQLVESGGGLVQAGGSLRLSCAASGRIFHFNAMGWYRQAPGKERELVAAITSSGGSTDYADSVKGRFTISRDTAKNTVYLQMNRLKPEDTADYYCAKRVDAYGWWGRRSGVLSDYWGQGTQVTVSS	low polyreactivity
QDQLVESGGGLVQAGGSLRLSCAASGRIFKVYAMGRYRQAPGKERELVAAITRNTGSTYYADSVKGRFTISRDNAKNTVYLQMNSLKPEDTSVFYCAVDVRSGRAYDYWGQGTQVTVSS	high polyreactivity
QDQLVESGGGLVQAGGSLRLSCAASGRIFPYNAMGWYRQAPGKERELVAGISRTGGSTYYADSVKGRFTISRDNAKNTVYLQMNSLKPEDTAVYYCAARPGAHPDRLDYWGQGTQVTVSS	low polyreactivity
QDQLVESGGGLVQAGGSLRLSCAASGRIFVYNDMGWYIQAPGKERELVAAISSVGTTYYADSVKGRFTISRDNAKNTVYLQMNSLIPEDTAVYYCAVTRYQSPPRYYYWGQGTQVTVSS	low polyreactivity
QDQLVESGGGLVQAGGSLRLSCAASGRILKYNAMGWYRQAPGKERELVAAISYRGGSTYYADSVKGRFTISRDNAMNTVYLQMNSLKPEDTAVYYCNAGGGILNGPLFDYWGQGTQVTVSS	low polyreactivity
QDQLVESGGGLVQAGGSLRLSCAASGRNFKYYGMRRYRQAPVKERDLVAAISRGSSTNYADSVKGRFTISRDNAKKTVYLQMYSLKPEDTAVYYCAVSLRRGGSGYAYDNWGQGTQVTVSA	high polyreactivity
QDQLVESGGGLVQAGGSLRLSCAASGRTCGYYTMGWYRQAPGKERELVATISSDGTTNYADSVKGRFTISRDNAKNTVYLQMNSLKQEDTAGYYCNADFRLQYYYRIYDYWGQGTQVTVSS	low polyreactivity
QDQLVESGGGLVQAGGSLRLSCAASGRTFASYAMGWYRQAPGKERELVAAITSSGGRTYYADSVKGRFTISRDYAKNTVYLQMNSLKPEVTAVYYCAVRGTKGYGYWGQGTQVTVSS	high polyreactivity
QDQLVESGGGLVQAGGSLRLSCAASGRTFGDKALGWYRQAPGKERELVAAISWSGGRTYYADSVKGRFTISRDYGKNTVYLQMNSLKPEDTAVYYCAARNNRYPLYNYWGQGTQVTVSS	low polyreactivity
QDQLVESGGGLVQAGGSLRLSCAASGRTFGTNARGWYRQAPGKERELVAGINYSDGSTYYADSVKGRFTISRDNAKNTVYLQMNSLKPEVTAVYYCAADPGWAWWELYYWGQGTQVTVSS	low polyreactivity
QDQLVESGGGLVQAGGSLRLSCAASGRTFIRNAMGWYRQAPGKERELVAAITNSGGSTYYADSVKGRFTISRDNAKNTVYLQMNSLNPEDTAVYDCNRVYRSHRPYTYPFSYDYWGQGTQVTVSS	high polyreactivity
QDQLVESGGGLVQAGGSLRLSCAASGRTFKGYAMGWYRQAPGKERELVAAIDSDGSTSYADSVKGRFTISRDNAKNTVYLQMISLKPEDTAVYYCAAAGQRPYEKGDYWGQGTQVTVSS	low polyreactivity
QDQLVESGGGLVQAGGSLRLSCAASGRTFPRNAMGWYRQAPGKERELVAAISSTGDSTYYADSVKGRFTISRDNAKNTVYLQMNSLKPEDTAVYYCHYPYDYWGQGTQVTVSS	low polyreactivity
QDQLVESGGGLVQAGGSLRLSCAASGRTFYFYAMGWYRQAPGKERELVAAISWTGGITYYADSVKGRFTISRDNAKNTVYLQMNSLKPEDTAVYYCAKKYYKVHKFDYWGQGTQVTVSS	low polyreactivity
QDQLVESGGGLVQAGGSLRLSCAASGRTFYYYTMGWDRQAPGKERELVAAISRRGGRTYYADSVKRRFTISRDNAKNTVYLQMTSLKPEDTAVYYCAADRDHVVDFDYWGQGTQVTVSS	high polyreactivity
QDQLVESGGGLVQAGGSLRLSCAASGRTIVLNPMGWYRQAHGKERELVAAISSGGSTNYADSVKGRFTISRDNAKNTVYLQMNSLNPEDTAVYYCAGQDVNLYSAYYYWGQGTQVTVSS	low polyreactivity
QDQLVESGGGLVQAGGSLRLSCAASGRTLGKYAMGWSRQAPGQERELVAAITQRGGITYYADSVQGRFTISRDNAKNTVYLQMNSLKPEDTAVYYCAASLYSYRSPYTFYYWGQGTQVTVSS	high polyreactivity
QDQLVESGGGLVQAGGSLRLSCAASGRTLVGNAMGLYRQAHGKERELVAAISLSDDITYYADSVKGRFTISRDNAKKTFYLQMNSLKPEDTAVYYCAAVYPGDSDFLGSYEESDSWGQGTQVTVSS	low polyreactivity
QDQLVESGGGLVQAGGSLRLSCAASGRTLVHYGMGRYRQAPRKERELVAVITSGGSTYYADSVKARFTISRDNAKNTVYLQMNSLKPEDTAVYYCAAYKERFYEEYGYWGQGTQLTVSS	low polyreactivity
